Assay results published in patent US20080118529A1 (published 2008).
Where “and” joins values, the source holds several entries; their conditions need not be identical. Equal entries are not always repeated.

B1: Tissue-type plasminogen activator (tPA, Actilyse, Boehringer-Ingelheim) (enzyme, human, UniProt P00750 36-562, looked up)
chain: SYQVICRDEKTQMIYQQHQSWLRPVLRSNRVEYCWCNSGRAQCHSVPVKSCSEPRCFNGGTCQQALYFSDFVCQCPEGFAGKCCEIDTRATCYEDQGISYRGTWSTAESGAECTNWNSSALAQKPYSGRRPDAIRLGLGNHNYCRNPDRDSKPWCYVFKAGKYSSEFCSTPACSEGNSDCYFGNGSAYRGTHSLTESGASCLPWNSMILIGKVYTAQNPSAQALGLGKHNYCRNPDGDAKPWCHVLKNRRLTWEYCDVPSCSTCGLRQYSQPQFRIKGGLFADIASHPWQAAIFAKHRRSPGERFLCGGILISSCWILSAAHCFQERFPPHHLTVILGRTYRVVPGEEEQKFEVEKYIVHKEFDDDTYDNDIALLQLKSDSSRCAQESSVVRTVCLPPADLQLPDWTECELSGYGKHEALSPFYSERLKEAHVRLYPSSRCTSQHLLNRTVTDNMLCAGDTRSGGPQANLHDACQGDSGGPLVCLNDGRMTLVGIISWGLGCGQKDVPGVYTKVTNYLDWIRDNMRP
notes: also called full-length tPA; recombinant human tPA

Experiments:
[1] = target: B1; assay: ELISA: tPA coated, concentration series of β2GPI, detection with monoclonal antibody 2B2
[2] = target: T1, human factor XII from plasma (Calbiochem, #233490) (human, UniProt P00748 20-615); assay: ELISA: factor XII coated, concentration series of β2GPI, detection with monoclonal antibody 2B2
T1 construct: also called FXII
T1 sequence (looked up): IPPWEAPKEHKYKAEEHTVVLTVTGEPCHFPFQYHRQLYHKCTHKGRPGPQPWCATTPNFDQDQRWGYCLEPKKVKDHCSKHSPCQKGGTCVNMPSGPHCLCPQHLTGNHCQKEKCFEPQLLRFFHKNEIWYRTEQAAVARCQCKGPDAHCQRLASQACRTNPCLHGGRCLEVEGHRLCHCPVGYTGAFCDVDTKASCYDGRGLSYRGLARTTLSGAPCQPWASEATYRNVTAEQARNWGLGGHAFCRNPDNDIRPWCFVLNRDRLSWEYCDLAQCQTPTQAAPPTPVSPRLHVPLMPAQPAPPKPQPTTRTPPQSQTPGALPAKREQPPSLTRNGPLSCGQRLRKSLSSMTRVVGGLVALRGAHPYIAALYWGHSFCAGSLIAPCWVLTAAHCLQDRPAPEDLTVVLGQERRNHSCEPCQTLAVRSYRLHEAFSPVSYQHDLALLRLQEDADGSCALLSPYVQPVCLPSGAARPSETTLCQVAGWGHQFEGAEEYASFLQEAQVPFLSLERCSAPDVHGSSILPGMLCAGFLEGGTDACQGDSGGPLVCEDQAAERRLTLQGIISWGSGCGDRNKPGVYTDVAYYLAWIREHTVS

albumin (ICN, 160069) = target: T2, albumin (ICN, 160069) (bovine, UniProt P02769 25-607); assay: ELISA; protein incubated with DXS500k or buffer immobilized, overlaid with tPA in 10 mM εACA
T2 construct: also called bovine serum albumin (ICN, #160069, fraction V)
T2 sequence (P02769 25-607 limits assumed): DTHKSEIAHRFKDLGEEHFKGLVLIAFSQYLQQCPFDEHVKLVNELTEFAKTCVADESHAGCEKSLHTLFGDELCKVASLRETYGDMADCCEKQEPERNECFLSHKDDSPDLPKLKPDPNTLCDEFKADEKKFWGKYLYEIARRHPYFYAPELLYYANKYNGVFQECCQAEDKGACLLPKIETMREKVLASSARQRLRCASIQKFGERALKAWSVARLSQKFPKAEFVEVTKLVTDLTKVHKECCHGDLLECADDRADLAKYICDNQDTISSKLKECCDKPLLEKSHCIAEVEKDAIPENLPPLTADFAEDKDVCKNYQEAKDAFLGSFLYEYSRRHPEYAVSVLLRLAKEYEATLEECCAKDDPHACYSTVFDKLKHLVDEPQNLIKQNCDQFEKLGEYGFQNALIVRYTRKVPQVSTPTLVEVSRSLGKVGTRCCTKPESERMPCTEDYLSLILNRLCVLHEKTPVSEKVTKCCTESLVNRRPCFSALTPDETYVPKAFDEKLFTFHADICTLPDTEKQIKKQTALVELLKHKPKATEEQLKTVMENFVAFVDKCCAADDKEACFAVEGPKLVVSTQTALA

[3] = target: T1, human factor XII from plasma …; assay: ELISA; factor XII incubated with DXS500k or buffer immobilized, overlaid with tPA in 10 mM εACA

Binder	Kd [1]	Kd [2]	factor of increase in tPA binding (protein exposed to DXS500k against protein in buffer only) (albumin (ICN, 160069)) [fold]	binding result [3]
recombinant human β2-glycoprotein I (made in insect cells) (other, UniProt P02749 20-345, looked up, also called recombinant β2GPI; rec. β2GPI) GRTCPKPDDLPFSTVVPLKTFYEPGEEITYSCKPGYVSRGGMRKFICPLTGLWPINTLKCTPRVCPFAGILENGAVRYTTFEYPNTISFSCNTGFYLNGADSAKCTEEGKWSPELPVCAPIICPPPSIPTFATLRVYKPSAGNNSLYRDTAVFECLPQHAMFGNDTITCTTHGNWTKLPECREVKCPFPSRPDNGFVNYPAKPTLYYKDKATFGCHDGYSLDGPEEIECTKLGNWSAMPSCKASCKVPVKKATVVYQGERVKIQEKFKNGMLHGDKVSFFCKNKEKKCSYTEDAQCIDGTIEVPKCFKEHSSLAFWKTDASDVKPC	2.3 µg/mL and 51 nM	0.9 µg/mL and 20 nM	–	–
B1	–	–	1.3	binds
